Test results published in patent publication US20180244730A1 (OXFORD UNIVERSITY INNOVATION, published 2018).

B2: SnoopCatcher (designed binder)
chain: MGSSHHHHHHSSGLVPRGSHMKPLRGAVFSLQKQHPDYPDIYGAIDQNGTYQNVRTGEDGKLTFKNLSDGKYRLFENSEPAGYKPVQNKPIVAFQIVNGEVRDVTSIVPQDIPATYEFTNGKHYITNEPIPPK
notes: also called SnoopCatcher fused to a His-Tag

Tests used:
[1] = molecular target: B2; assay: mixing, SDS-PAGE with Coomassie staining
[2] = molecular target: SnoopTag-MBP; assay: mixing, SDS-PAGE with Coomassie staining
[3] = molecular target: T1, SpyCatcher; assay: mixing, SDS-PAGE with Coomassie staining
T1 construct: also called pDEST14-SpyCatcher (GenBank JQ478411, Addgene plasmid ID 35044)

[4] = molecular target: SnoopTag-MBP; assay: mixing, SDS-PAGE with Coomassie staining (covalent isopeptide adduct)
[5] = molecular target: B2; assay: electrospray ionization mass spectrometry

T1 sequence (chain, as listed by the source): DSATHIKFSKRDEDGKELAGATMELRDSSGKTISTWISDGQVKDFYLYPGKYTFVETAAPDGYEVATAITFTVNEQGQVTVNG

B1: RrgACatcher (designed binder)
chain: KLGDIEFIKVNKNDKKPLRGAVFSLQKQHPDYPDIYGAIDQNGTYQNVRTGEDGKLTFKNLSDGKYRLFENSEPAGYKPVQNKPIVAFQIVNGEVRDVTSIVPQ
B1: no binding [1]; no binding [2]; no binding [3].

B2: binds [4].

KLGDIEFIKVNK [synthetic SnoopTag peptide]: binds [5].
